Target: T1, HA-GATOR2 (UniProt Q9NXC5 1-875; Q96S15 1-790; Q6PJI9 1-974; Q96EE3 1-360; P55735 1-322)
T1 construct: MIOS; WDR24; WDR59; SEH1L; SEC13; that every subunit carried the HA tag is read from the name HA-GATOR2; also called immunopurified GATOR2 protein components; purified GATOR2; source: HEK293, transfected, immunopurified (anti-HA agarose beads, HA peptide); copies: + + + +
Experiment: pull-down; in vitro: purified proteins mixed in 20 ul buffer A (30 mM Tris-HCl pH8.0, 100 mM NaCl, 1 mM TCEP), incubated overnight with antibodies against the target protein, protein G/A bead, immunoblot; 1 ug Sestrin2; in Fig. 2D GATOR1 pulled down with NPRL2 antibody and detection with HA antibody
Settings: both partners purified

B1: Recombinant Sestrin2 (natural protein, UniProt P58004 1-480, looked up)
chain: MIVADSECRAELKDYLRFAPGGVGDSGPGEEQRESRARRGPRGPSAFIPVEEVLREGAESLEQHLGLEALMSSGRVDNLAVVMGLHPDYFTSFWRLHYLLLHTDGPLASSWRHYIAIMAAARHQCSYLVGSHMAEFLQTGGDPEWLLGLHRAPEKLRKLSEINKLLAHRPWLITKEHIQALLKTGEHTWSLAELIQALVLLTHCHSLSSFVFGCGILPEGDADGSPAPQAPTPPSEQSSPPSRDPLNNSGGFESARDVEALMERMQQLQESLLRDEGTSQEEMESRFELEKSESLLVTPSADILEPSPHPDMLCFVEDPTFGYEDFTRRGAQAPPTFRAQDYTWEDHGYSLIQRLYPEGGQLLDEKFQAAYSLTYNTIAMHSGVDTSVLRRAIWNYIHCVFGIRYDDYDYGEVNQLLERNLKVYIKTVACYPEKTTRRMYNLFWRHFRHSEKVHVNLLLLEARMQAALLYALRAITRYMT
notes: Full-length Sestrin2 cDNA; also called Sestrin2 protein; purified Sestrin2; source: Rosetta (DE3) pLysS E. coli, purified (Ni-NTA, amylase resin, TEV, HiTrap Q, Superdex 200); not shown: His6, N-terminal, cleaved; MBP, N-terminal, cleaved
B1: binds.
